# From IntAct's records for PubMed 25543256
# B1: Diphthamide biosynthesis protein 3 (Saccharomyces cerevisiae), Q3E840 (parent)
# chain: MSTYDEIEIEDMTFEPENQMFTYPCPCGDRFQIYLDDMFEGEKVAVCPSCSLMIDVVFDKEDLAEYYEEAGIHPPEPIAAAA
# partner: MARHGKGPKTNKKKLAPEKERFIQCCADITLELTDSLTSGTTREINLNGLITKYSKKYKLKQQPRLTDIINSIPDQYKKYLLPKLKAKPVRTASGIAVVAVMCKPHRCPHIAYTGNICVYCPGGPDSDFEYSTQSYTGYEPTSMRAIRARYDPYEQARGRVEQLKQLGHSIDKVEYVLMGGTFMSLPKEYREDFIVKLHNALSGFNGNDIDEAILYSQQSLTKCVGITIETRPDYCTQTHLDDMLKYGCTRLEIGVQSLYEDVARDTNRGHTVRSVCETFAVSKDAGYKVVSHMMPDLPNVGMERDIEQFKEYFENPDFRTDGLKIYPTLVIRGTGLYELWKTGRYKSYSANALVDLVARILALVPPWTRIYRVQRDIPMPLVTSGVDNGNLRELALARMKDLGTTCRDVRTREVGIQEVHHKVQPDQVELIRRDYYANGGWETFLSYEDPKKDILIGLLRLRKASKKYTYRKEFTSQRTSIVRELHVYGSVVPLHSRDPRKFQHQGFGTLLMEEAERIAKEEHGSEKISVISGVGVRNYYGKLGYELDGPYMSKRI
# B2: Diphthamide biosynthesis protein 3 (Saccharomyces cerevisiae), Q3E840 (parent)
# chain: B1 chain
# partner: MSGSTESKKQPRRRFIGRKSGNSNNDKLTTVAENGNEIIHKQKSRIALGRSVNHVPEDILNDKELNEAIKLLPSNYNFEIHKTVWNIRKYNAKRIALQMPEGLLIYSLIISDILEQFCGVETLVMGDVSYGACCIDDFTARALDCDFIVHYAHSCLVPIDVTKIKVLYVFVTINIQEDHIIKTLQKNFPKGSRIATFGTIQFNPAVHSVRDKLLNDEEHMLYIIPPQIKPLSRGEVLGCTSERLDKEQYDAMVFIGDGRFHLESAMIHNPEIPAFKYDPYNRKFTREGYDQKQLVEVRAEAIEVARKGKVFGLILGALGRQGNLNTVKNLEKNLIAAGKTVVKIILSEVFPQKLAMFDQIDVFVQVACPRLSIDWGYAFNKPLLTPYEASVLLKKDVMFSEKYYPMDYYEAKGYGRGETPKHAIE
# B3: Diphthamide biosynthesis protein 3 (Saccharomyces cerevisiae), Q3E840 (parent)
# chain: B1 chain
# partner: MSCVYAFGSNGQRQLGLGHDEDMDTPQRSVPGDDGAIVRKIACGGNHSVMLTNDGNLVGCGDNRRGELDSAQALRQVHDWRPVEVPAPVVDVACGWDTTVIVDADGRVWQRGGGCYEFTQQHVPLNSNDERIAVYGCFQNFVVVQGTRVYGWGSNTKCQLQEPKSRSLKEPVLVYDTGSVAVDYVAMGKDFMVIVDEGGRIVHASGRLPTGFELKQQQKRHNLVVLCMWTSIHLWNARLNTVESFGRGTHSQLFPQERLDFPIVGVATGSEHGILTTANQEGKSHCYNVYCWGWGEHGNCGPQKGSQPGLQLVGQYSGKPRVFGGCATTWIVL
# B4: Protein KTI13 (Saccharomyces cerevisiae), P31386 (parent)
# chain: B3 partner
# partner: B1 chain
# Variants of: B1
# Conditions: with elp3_yeast ELP3, Q02908
row,effect of a mutation on the interaction,Variant
1,disrupting interaction strength,C50S

# Variants of: B2
# Conditions: with dph1_yeast DPH1, P40487
row,effect of a mutation on the interaction,Variant
1,disrupting interaction strength,C27S
2,disrupting interaction strength,C25S
3,disrupting interaction strength,C47S
4,disrupting interaction strength,C50S

# Variants of: B3
# Conditions: with ats1_yeast ATS1, P31386
row,effect of a mutation on the interaction,Variant
1,decreasing interaction strength,E6A;E8A
2,decreasing interaction strength,D5A

# Variants of: B3
# Conditions: with ats1_yeast ATS1, P31386
# Remark: another data set of the same source
row,effect of a mutation on the interaction,Variant
1,disrupting interaction strength,D5A
2,disrupting interaction strength,Y4A
3,decreasing interaction strength,E8A

# Variants of: B3
# Conditions: with ats1_yeast ATS1, P31386
# Remark: another data set of the same source
row,effect of a mutation on the interaction,Variant
1,decreasing interaction strength,Y4A;D5A
2,decreasing interaction strength,Y4A
3,decreasing interaction strength,I7A;I9A

# Variants of: B4
# Conditions: with dph3_yeast KTI11, Q3E840
row,effect of a mutation on the interaction,Variant
1,decreasing interaction strength,W229C

# Variants of: B4
# Conditions: with dph3_yeast KTI11, Q3E840
# Remark: another data set of the same source
row,effect of a mutation on the interaction,Variant
1,disrupting interaction strength,W229C
2,disrupting interaction strength,W229A
3,decreasing interaction strength,W294A

# Variants of: B4
# Conditions: with dph3_yeast KTI11, Q3E840
# Remark: another data set of the same source
row,effect of a mutation on the interaction,Variant
1,decreasing interaction strength,W229A
2,increasing interaction strength,E296A
3,increasing interaction strength,H297A
